The values below are quoted from earlier work in article PMC6155283.

pKd: −log10 of the molar value. Where “and” joins values, the source holds several entries; their conditions need not be identical. Equal entries are not always repeated.

Broadly, the pKd is the negative decadic logarithm of the Kd, by convention in mol/L.

The target of this data set is GRα (Homo sapiens) (UniProt P04150).

For GRα (from UniProt P04150), the negative-log Kd (pKd) was 5.13 and 5.52.
